Assay results: PMC11584402

B1: BAD-eGFP, Q92934 1-168 (natural protein)
chain: MFQIPEFEPSEQEDSSSAERGLGPSPAGDGPSGSGKHHRQAPGLLWDASHQQEQPTSSSHHGGAGAVEIRSRHSSYPAGTEDDEGMGEEPSPFRGRSRSAPPNLWAAQRYGRELRRMSDEFVDSFKKGLPRPKSAGTATQMRQSSSWTRVFQSWWDRNLGRGSSAPSQ
B2: NOXA-eGFP, Q13794 1-54 (natural protein)
chain: MPGKKARKNAQPSPARAPAELEVECATQLRRFGDKLNFRQKLLNLISKLFCSGT

Key:
[1] = target: BCL2-mCherry (human), P10415; details: natural protein; chains chain; remark: other sources report otherwise
[2] = target: BCLxL-mCherry (human), Q07817; experiment: probe binding assay (PBA; single-molecule pull-down with TIRF counting); mCherry-labelled anti-apoptotic protein immobilised from HEK293T crude extract on a PEG surface (biotinylated anti-RFP antibody); crude HEK293T extract with the eGFP-labelled probe diluted to a range of eGFP concentrations, 10 min; fractional occupancy of surface baits at equilibrium fitted with n fixed to 1 or with the generalized Hill …; details: remark: other sources report otherwise
BCLxL-mCherry (human), Q07817, sequence (Q07817 whole entry): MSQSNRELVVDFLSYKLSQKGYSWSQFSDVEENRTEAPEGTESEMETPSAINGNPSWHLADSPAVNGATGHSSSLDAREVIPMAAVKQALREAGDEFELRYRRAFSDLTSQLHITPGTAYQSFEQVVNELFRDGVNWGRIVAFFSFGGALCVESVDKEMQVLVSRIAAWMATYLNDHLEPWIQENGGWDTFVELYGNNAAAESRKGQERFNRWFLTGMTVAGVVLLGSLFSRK

[3] = target: MCL1-mCherry (human), Q07820; experiment: probe binding assay (PBA; single-molecule pull-down with TIRF counting); mCherry-labelled anti-apoptotic protein from HEK293T crude extract immobilised on the PEG surface (anti-RFP antibody); eGFP-labelled probe in crude HEK293T extract added at 0-20 nM eGFP, 10 min; fractional occupancy of surface baits fitted to [probe]/(Kd+[probe]); details: remark: other sources report otherwise
MCL1-mCherry (human), Q07820, sequence (Q07820 whole entry): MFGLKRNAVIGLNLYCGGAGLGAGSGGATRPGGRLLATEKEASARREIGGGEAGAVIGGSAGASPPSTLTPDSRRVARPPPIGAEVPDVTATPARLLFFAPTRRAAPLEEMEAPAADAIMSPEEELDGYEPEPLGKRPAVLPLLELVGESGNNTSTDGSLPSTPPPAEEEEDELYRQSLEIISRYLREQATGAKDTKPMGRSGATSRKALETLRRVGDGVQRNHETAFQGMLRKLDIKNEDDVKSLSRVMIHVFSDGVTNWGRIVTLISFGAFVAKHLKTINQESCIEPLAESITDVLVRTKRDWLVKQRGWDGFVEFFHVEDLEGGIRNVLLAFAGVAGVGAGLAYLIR

[4] = target: MCL1-mCherry (human), Q07820; experiment: probe binding assay (PBA; single-molecule pull-down with TIRF counting); mCherry-labelled anti-apoptotic protein immobilised from HEK293T crude extract on a PEG surface (biotinylated anti-RFP antibody); crude HEK293T extract with the eGFP-labelled probe diluted to a range of eGFP concentrations, 10 min; fractional occupancy of surface baits at equilibrium fitted with n fixed to 1 or with the generalized Hill …; details: remark: other sources report otherwise

BCL2-mCherry (human), P10415, sequence (P10415 whole entry): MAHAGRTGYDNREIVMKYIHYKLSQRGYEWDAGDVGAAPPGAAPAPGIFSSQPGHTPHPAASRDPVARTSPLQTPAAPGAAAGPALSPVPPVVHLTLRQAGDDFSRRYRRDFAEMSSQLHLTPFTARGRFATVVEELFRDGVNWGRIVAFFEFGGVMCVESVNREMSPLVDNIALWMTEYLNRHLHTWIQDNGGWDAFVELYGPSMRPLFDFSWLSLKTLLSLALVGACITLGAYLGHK

| Binder | Kd [1] [nM] | Kd [2] [nM] | Kd [3] [nM] | Kd [4] [nM] |
| --- | --- | --- | --- | --- |
| B1 | 5.5 | 2.5 |  |  |
| B2 |  |  | 4.1 | 4.1 |
